# In the supplement of paper PMC10065799, “High-throughput profiling of sequence recognition by tyrosine kinases and SH2 domains using bacterial peptide display” (eLife, 2023):
# Columns and labels:
# Grb2 SH2 = Grb2 SH2 (UniProt P62993); experiment: SH2 binding enrichment of the phosphorylated peptide, bacterial display (enrichment ratio); higher = better substrate or ligand; peptides without Tyr show the background
# c-Src SH2 = experiment: as above
# SHP2-C SH2 = experiment: as above
# Fes = Fes (UniProt P07332); experiment: phosphorylation enrichment, bacterial display (enrichment ratio); higher = better substrate or ligand; peptides without Tyr show the background
# EPHB2 = EPHB2 (UniProt P29323); experiment: as above
# c-Src = experiment: as above
# MERTK = MERTK (UniProt Q12866); experiment: as above
# Hck = Hck (UniProt P08631); experiment: as above
# FGFR3 = FGFR3 (UniProt P22607); experiment: as above
# FGFR1 = FGFR1 (UniProt P11362); experiment: as above
# Jak2 = Jak2 (UniProt O60674); experiment: as above
# EPHB1 = EPHB1 (UniProt P54762); experiment: as above
# Fyn = Fyn (UniProt P06241); experiment: as above
# c-Abl (mouse) = experiment: as above
# AncSZ = experiment: as above
# Fer (mouse) = experiment: as above
# 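For SH2 binding enrichment of the phosphorylated peptide, bacterial display in this document: peptide library displayed on the E. coli surface as eCPX fusions, selected cells deep-sequenced, score is each peptide's frequency after selection divided by its frequency in the input.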
# 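For phosphorylation enrichment, bacterial display in this document: 11-residue human phosphosite peptides and single-mutation variants displayed on the E. coli surface, counted by deep sequencing, each peptide's frequency after selection divided by its frequency in the unselected input library; frequency after pTyr selection over input frequency; kinase dosed for 20-30% of maximal phosphorylation in three min.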
# Sequence of EPHB1 (P54762 whole entry, looked up): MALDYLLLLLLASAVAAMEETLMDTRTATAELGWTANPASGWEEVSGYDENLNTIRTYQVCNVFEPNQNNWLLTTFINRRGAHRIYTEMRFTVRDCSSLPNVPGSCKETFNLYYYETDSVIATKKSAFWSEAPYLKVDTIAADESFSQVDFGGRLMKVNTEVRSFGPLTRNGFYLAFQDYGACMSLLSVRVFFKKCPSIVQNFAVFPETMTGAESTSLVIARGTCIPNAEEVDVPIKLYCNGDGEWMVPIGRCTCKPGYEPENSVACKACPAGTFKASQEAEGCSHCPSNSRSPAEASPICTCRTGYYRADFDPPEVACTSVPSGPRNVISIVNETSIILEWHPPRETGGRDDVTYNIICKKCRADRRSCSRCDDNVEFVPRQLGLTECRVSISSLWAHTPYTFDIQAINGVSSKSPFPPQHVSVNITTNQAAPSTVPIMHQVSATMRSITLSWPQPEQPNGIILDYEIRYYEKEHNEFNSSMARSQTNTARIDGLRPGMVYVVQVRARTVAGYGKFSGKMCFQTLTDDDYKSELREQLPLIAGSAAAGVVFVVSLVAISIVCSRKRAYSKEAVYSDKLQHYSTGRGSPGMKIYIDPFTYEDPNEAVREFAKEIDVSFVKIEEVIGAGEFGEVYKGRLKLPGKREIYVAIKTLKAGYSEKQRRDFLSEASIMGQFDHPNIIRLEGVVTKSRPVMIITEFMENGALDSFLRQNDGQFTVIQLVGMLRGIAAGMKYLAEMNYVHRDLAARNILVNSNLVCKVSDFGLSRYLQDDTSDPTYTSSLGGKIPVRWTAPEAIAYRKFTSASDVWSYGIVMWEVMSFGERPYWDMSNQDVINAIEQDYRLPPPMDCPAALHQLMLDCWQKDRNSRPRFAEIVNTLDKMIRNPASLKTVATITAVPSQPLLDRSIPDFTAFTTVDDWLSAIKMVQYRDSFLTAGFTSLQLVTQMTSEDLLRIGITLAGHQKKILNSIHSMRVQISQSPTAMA
# Sequence of Grb2 SH2 (P62993 whole entry, looked up): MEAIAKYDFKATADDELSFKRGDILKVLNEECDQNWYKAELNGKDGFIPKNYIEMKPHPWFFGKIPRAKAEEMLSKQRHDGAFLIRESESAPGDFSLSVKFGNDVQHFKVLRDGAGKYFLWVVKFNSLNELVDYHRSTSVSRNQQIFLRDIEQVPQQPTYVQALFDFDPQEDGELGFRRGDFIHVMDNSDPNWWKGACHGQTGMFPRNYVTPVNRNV
# Sequence of Fyn (P06241 whole entry, looked up): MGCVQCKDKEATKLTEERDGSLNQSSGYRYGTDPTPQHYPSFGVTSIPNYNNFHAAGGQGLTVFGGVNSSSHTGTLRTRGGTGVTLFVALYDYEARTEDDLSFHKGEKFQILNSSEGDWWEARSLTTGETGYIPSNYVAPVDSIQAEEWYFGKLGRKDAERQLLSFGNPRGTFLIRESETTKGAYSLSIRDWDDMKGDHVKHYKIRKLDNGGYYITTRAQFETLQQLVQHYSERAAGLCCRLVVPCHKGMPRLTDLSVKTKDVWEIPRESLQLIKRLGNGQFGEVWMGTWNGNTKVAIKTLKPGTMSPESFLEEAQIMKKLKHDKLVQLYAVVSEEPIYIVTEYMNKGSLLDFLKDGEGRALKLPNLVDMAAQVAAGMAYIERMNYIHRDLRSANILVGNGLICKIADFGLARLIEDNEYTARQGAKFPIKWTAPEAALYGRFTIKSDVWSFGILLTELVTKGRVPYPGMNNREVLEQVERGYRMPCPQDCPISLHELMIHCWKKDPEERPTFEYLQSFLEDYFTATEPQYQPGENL
# Sequence of MERTK (Q12866 whole entry, looked up): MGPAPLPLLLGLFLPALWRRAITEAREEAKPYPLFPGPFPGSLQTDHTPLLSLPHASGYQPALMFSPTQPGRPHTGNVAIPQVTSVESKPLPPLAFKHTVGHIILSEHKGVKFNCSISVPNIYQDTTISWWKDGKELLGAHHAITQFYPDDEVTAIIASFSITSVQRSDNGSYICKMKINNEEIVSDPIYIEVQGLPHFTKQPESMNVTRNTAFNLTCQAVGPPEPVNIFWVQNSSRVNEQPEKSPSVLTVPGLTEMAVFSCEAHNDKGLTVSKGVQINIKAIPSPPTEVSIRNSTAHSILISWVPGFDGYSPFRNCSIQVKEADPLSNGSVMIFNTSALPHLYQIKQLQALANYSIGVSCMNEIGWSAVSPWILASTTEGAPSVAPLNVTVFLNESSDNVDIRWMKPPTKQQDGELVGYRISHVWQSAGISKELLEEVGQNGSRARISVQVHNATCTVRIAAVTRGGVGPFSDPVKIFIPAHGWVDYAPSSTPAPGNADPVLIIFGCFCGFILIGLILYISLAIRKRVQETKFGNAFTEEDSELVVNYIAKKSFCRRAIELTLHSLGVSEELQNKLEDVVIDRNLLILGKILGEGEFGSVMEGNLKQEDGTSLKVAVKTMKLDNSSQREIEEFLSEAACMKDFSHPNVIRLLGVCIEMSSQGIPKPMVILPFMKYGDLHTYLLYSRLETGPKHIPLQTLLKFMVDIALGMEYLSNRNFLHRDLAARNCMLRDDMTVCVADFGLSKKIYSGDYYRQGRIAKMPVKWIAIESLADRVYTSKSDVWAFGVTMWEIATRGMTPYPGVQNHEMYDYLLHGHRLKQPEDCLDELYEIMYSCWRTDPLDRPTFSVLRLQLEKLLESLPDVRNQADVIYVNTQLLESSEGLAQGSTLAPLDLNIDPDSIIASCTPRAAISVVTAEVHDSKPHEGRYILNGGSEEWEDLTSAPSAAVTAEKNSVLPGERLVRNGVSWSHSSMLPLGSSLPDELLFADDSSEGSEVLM
# Sequence of EPHB2 (P29323 whole entry, looked up): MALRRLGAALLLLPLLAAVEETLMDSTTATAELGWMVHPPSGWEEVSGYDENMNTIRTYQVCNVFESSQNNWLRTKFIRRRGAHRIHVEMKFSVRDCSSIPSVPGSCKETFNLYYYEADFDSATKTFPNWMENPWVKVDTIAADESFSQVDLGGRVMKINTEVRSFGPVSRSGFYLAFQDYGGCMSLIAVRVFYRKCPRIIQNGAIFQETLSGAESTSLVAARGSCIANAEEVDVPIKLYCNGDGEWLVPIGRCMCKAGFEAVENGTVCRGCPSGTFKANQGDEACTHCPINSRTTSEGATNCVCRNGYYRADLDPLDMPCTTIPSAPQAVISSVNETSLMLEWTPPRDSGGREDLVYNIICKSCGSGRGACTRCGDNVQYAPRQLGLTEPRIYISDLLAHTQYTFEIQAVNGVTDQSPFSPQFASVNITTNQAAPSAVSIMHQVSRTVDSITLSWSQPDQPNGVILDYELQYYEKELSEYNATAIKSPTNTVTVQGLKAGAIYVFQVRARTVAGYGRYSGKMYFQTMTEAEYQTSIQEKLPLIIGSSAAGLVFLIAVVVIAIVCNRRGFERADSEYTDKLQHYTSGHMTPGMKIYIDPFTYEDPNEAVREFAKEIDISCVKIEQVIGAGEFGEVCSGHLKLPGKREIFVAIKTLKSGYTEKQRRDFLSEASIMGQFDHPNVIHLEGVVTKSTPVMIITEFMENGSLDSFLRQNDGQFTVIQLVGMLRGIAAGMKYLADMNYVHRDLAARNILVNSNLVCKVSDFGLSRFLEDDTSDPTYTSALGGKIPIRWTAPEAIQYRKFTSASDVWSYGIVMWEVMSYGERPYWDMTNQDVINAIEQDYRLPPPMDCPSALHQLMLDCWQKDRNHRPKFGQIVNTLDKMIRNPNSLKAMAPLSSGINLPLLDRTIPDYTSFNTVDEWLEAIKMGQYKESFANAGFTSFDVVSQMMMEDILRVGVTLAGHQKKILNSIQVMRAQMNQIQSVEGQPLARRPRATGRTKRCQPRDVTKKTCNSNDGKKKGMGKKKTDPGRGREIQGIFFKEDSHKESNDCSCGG
# Sequence of Hck (P08631 whole entry, looked up): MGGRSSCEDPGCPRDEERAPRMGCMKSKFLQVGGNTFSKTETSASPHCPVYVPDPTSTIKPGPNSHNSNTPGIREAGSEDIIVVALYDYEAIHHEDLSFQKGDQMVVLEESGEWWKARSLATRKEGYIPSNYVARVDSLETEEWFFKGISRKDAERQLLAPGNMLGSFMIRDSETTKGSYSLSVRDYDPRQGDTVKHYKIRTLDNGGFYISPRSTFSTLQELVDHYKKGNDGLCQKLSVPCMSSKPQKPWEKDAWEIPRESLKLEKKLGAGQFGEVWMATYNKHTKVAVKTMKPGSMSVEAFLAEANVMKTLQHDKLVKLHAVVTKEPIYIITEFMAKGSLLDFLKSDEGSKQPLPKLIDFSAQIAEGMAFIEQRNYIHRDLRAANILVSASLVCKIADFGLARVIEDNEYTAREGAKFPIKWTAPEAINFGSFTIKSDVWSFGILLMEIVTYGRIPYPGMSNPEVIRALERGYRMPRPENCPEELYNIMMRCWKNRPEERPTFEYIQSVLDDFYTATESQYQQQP
Sequence,SH2 binding enrichment (Grb2 SH2),SH2 binding enrichment (c-Src SH2),SH2 binding enrichment (SHP2-C SH2),phosphorylation enrichment (Fes),phosphorylation enrichment (EPHB2),phosphorylation enrichment (c-Src),phosphorylation enrichment (MERTK),phosphorylation enrichment (Hck),phosphorylation enrichment (FGFR3),phosphorylation enrichment (FGFR1),phosphorylation enrichment (Jak2),phosphorylation enrichment (EPHB1),phosphorylation enrichment (Fyn),phosphorylation enrichment (c-Abl (mouse)),phosphorylation enrichment (AncSZ),phosphorylation enrichment (Fer (mouse))
AGQERYRAITS [RAB11B_Y73],0.938,0.404,0.412,0.627,0.53,0.512,0.487,0.527,0.466,0.613,0.704,0.413,0.554,0.605,0.641,0.469
AGTIPYHAHLD [ASS1_Y291_L290P],0.838,0.554,0.772,0.645,0.369,0.377,0.456,0.484,0.435,0.458,0.447,0.395,0.415,0.474,0.507,0.357
AIQDAYMHITS [ADCY10_Y318],0.825,1.27,0.742,0.647,0.492,0.483,0.542,0.457,0.523,0.576,0.584,0.469,0.517,0.588,0.671,0.497
AIYEGYALPHA [ACTC1_Y171_P166A],0.792,2.48,0.726,1.37,30.1,11.3,13.8,13.7,0.773,0.761,0.789,20.8,15.9,18.1,1.77,22.6
AKLKDYFIFNK [CCDC42_Y149_YF],1.37,0.846,0.847,0.783,0.513,0.658,0.56,0.478,1,1.49,0.759,0.417,0.465,0.435,0.82,0.487
AKQVGCENAGT [PC_Y304_Y304C],0.803,0.455,0.694,0.83,0.455,0.428,0.442,0.408,0.484,0.391,0.706,0.407,0.487,0.638,0.749,0.42
AKRKGYDMRVD [NEB_Y2770],0.755,0.464,0.728,0.477,0.339,0.363,0.394,0.355,0.297,0.292,0.431,0.295,0.47,0.42,0.459,0.358
ALAHKYDGGGG [HBB_Y146_H147D],0.765,0.401,0.357,0.7,0.655,0.478,0.54,0.473,0.494,0.751,0.825,0.464,0.367,0.663,0.985,0.635
ALDHKYHGGGG [HBB_Y146_A143D],0.863,0.479,0.6,0.526,0.355,0.372,0.381,0.406,0.392,0.365,0.455,0.342,0.375,0.425,0.458,0.321
ALRASYTPSPA [ESS2_Y418],0.893,0.536,0.624,0.471,0.34,0.369,0.326,0.333,0.389,0.366,0.294,0.352,0.332,0.329,0.448,0.367
ANAYIYDVQLP [L1CAM_Y420_V421D],0.854,0.773,1.54,1.05,2.78,7.22,9.63,6.89,0.89,0.65,0.905,3.15,10.3,0.954,1.25,1.72
ANNQRYAFMPL [TMEM87B_Y460],0.821,1.42,0.84,0.696,0.591,0.485,5.61,0.393,0.566,0.535,0.621,0.655,0.436,0.528,0.588,0.394
ANSPVYVPTTR [GATA6_Y188_S184N],0.834,0.506,0.783,0.667,0.405,0.448,0.468,0.583,0.441,0.419,0.821,0.371,0.384,0.52,0.506,0.44
ANVKWYRNGRE,0.658,0.512,0.487,0.738,0.578,0.485,0.468,0.484,0.485,0.409,0.665,0.509,0.43,0.479,0.867,0.457
LSDGPYSNPYE [EPOR_Y485],1.39,5.44,0.703,–,–,3.36,–,–,–,–,3.98,–,–,3.22,–,–
